{"source": "patent US20050227220A1", "about": "“Compositions and Methods for Evaluating and Designing Nuclear Receptor Ligands that Modulate Co-Regulator Affinity” (priority 2002, published 2005)", "molecules": {"B1": {"name": "VP16-human PPARγ2 (full length) (other)", "chain": "LSTAPPTDVSLGDELHLDGEDVAMAHADALDDFDLDMLGDGDSPGPGFTPHDSAPYGALDMADFEFEQMFTDALGIDEYGGMGETLGDSPIDPESDSFTDTLSANISQEMTMVDTEMPFWPTNFGISSVDLSVMEDHSHSFDIKPFTTVDFSSISTPHYEDIPFTRTDPVVADYKYDLKLQEYQSAIKVEPASPPYYSEKTQLYNKPHEEPSNSLMAIECRVCGDKASGFHYGVHACEGCKGFFRRTIRLKLIYDRCDLNCRIHKKSRNKCQYCRFQKCLAVGMSHNAIRFGRMPQAEKEKLLAEISSDIDQLNPESADLRALAKHLYDSYIKSFPLTKAKARAILTGKTTDKSPFVIYDMNSLMMGEDKIKFKHITPLQEQSKEVAIRIFQGCQFRSVEAVQEITEYAKSIPGFVNLDLNDQVTLLKYGVHEIIYTMLASLMNKDGVLISEGQGFMTREFLKSLRKPFGDFMEPKFEFAVKFNALELDDSDLAIFIAVIILSGDRPGLLNVKPIEDIQDNLLQALELQLKLNHPESSQLFAKLLQKMTDLRQIVTEHVQLLQVIKKTETDMSLHPLLQEIYKDLY"}, "B2": {"name": "TRβ ligand binding domain (receptor, UniProt P10828 202-461, looked up)", "chain": "EELQKSIGHKPEPTDEEWELIKTVTEAHVATNAQGSHWKQKRKFLPEDIGQAPIVNAPEGGKVDLEAFSHFTKIITPAITRVVDFAKKLPMFCELPCEDQIILLKGCCMEIMSLRAAVRYDPESETLTLNGEMAVTRGQLKNGGLGVVSDAIFDLGMSLSSFNLDDTEVALLQAVLLMSSDRPGLACVERIEKYQDSFLLAFEHYINYRKHHVTHFWPKLLMKVTDLRMIGACHASRFLHMKVECPTELFPPLFLEVFED", "notes": "also called Thyroid Receptor LBD; TRβ LBD"}, "B3": {"name": "GAL4-NcoR (2239-2300) (other)", "chain": "MKLLSSIEQACDICRLKKLKCSKEKPKCAKCLKNNWECRYSPKTKRSPLTRAHLTEVESRLERLEQLFLLIFPREDLDMILKMDSLQDIKALLTGLFVQDNVNKDAVTDRLASVETDMPLTLRQHRISATSSSEESSNKGQRQLTVSPAVTTSGSVSSRGHSFADPASNLGLEDIIRKALMGSFDDKVEDHGVVMSQPMGVVPGTANTS", "notes": "range 1-147;range 2239-2300; also called GAL4-NCoR 2239 to 2300"}, "B4": {"name": "SRC-1 peptide (amino acids 676-700) (peptide)", "peptide": "Biotin-CPSSHSSLTERHKILHRLLQEGSPS", "modifications": "also: fluorescent label in polarization assay, not given here", "notes": "also called SRC-1 (LCD2) 676-700; SRC peptide"}}, "key": {"[1]": {"target": "Fluoroscein-SMRT ID-C peptide", "assay": "fluorescence polarization, 10 nM fluorescein peptide, LBD titrated, no ligand"}, "[2]": {"target": "Fluoroscein-NCOR ID-C peptide (NCoR amino acids 2251-2275)", "assay": "fluorescence polarization, 10 nM fluorescein peptide, LBD titrated, no ligand"}, "[3]": {"target": "Fluoroscein-SMRT ID-C peptide", "assay": "fluorescence polarization"}, "[4]": {"target": "Fluoroscein-NCOR ID-C peptide (NCoR amino acids 2251-2275)", "assay": "fluorescence polarization"}, "GAL4-NcoR (2239-2300)": {"target": "B3", "assay": "cell-based or functional assay"}, "GAL4-CBP (1-115)": {"target": "GAL4-CBP (1-115) (UniProt P04386 1-147; P45481 1-115)", "assay": "cell-based or functional assay"}, "[5]": {"target": "T1, biotin-NCOR ID-C peptide (NCoR amino acids 2251-2275) (N-terminal biotin)", "T1 construct": "also called NCOR-derived co-repressor peptide", "T1 peptide": "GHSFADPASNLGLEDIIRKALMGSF", "assay": "time-resolved FRET (ratio 665 nm/620 nm), biotinylated NCOR (2251-2275) peptide on europium streptavidin with APC-labeled LXRα LBD, test compound at 2 µM; normalized to % inhibition or activation"}, "[6]": {"target": "T2, ERβ ligand binding domain (amino acids 257-530) (UniProt Q92731 257-530)", "T2 construct": "range 257-530; not shown: His-tag", "T2 sequence (Q92731 257-530 limits assumed)": "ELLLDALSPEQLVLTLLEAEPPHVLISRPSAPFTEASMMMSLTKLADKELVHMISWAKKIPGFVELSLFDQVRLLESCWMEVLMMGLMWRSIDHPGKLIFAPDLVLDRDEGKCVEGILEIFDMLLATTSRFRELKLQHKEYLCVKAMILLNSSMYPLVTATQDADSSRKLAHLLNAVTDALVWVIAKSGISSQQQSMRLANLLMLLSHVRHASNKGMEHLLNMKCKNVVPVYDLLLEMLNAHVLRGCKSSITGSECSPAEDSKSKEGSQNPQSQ", "assay": "fluorescence polarization, 10 nM fluorescein peptide, LBD titrated, no ligand"}, "[7]": {"target": "T3, RXRα ligand binding domain (amino acids 225-462) (UniProt P19793 225-462)", "T3 construct": "range 225-462; Biotinylated for FRET; also called RXRα LBD; not shown: His-tag", "T3 sequence (looked up)": "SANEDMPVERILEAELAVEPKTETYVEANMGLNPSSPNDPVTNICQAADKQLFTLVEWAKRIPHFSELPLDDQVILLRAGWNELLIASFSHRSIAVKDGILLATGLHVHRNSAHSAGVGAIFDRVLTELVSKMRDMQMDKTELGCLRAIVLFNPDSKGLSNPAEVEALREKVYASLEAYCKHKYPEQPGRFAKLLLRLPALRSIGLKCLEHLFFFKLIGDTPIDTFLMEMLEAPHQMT", "assay": "fluorescence polarization, 10 nM fluorescein peptide, LBD titrated, no ligand"}, "[8]": {"target": "T4, human PPARδ ligand binding domain (amino acids 139-441) (human, UniProt Q03181 139-441, Biotinylated (site not stated) in the FRET assays; unlabelled in fluorescence polarization and SPR.)", "T4 construct": "placed at the N-terminus here; Biotinylated for FRET; also called PPARδ LBD", "T4 sequence": "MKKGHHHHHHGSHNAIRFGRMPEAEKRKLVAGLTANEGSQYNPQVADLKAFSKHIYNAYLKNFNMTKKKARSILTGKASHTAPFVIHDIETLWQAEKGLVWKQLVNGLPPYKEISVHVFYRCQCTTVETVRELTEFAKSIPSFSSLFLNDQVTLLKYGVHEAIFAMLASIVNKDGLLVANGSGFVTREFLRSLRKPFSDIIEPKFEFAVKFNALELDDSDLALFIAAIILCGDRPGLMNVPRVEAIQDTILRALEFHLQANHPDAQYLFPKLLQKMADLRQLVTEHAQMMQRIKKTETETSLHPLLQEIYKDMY", "assay": "fluorescence polarization, 10 nM fluorescein peptide, LBD titrated, no ligand"}, "[9]": {"target": "T5, human PPARα ligand binding domain (amino acids 192-468) (human, UniProt Q07869 192-468)", "T5 construct": "range 192-468; placed at the N-terminus here; Biotinylated for FRET; also called PPARα LBD", "T5 sequence": "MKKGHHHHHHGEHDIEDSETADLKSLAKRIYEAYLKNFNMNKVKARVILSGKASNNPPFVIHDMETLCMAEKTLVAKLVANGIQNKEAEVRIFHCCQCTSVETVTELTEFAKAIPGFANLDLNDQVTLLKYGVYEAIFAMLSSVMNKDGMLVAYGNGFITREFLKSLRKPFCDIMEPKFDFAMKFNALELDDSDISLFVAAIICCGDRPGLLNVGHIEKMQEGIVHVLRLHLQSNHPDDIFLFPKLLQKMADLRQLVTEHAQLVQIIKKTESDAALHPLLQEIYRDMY", "assay": "fluorescence polarization, 10 nM fluorescein peptide, LBD titrated, no ligand"}, "[10]": {"target": "T6, human PPARγ ligand binding domain (amino acids 206-477) (human, UniProt P37231-2 206-477)", "T6 construct": "range 206-477; placed at the N-terminus here; Biotinylated for FRET; also called PPARγ LBD", "T6 sequence": "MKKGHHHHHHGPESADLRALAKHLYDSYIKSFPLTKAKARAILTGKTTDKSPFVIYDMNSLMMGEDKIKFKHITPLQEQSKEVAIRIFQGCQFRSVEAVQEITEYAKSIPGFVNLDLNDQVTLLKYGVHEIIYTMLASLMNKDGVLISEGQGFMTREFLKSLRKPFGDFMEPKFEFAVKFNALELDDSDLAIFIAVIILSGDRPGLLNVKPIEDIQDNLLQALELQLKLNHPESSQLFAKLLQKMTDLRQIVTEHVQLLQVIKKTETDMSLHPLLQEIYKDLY", "assay": "fluorescence polarization, 10 nM fluorescein peptide, LBD titrated, no ligand"}, "[11]": {"target": "B2", "assay": "fluorescence polarization, 10 nM fluorescein peptide, LBD titrated, no ligand"}, "[12]": {"target": "T7, RARα ligand binding domain (amino acids 146-432) (UniProt P10276 146-432)", "T7 construct": "range 146-432; not shown: His-tag", "T7 sequence (looked up)": "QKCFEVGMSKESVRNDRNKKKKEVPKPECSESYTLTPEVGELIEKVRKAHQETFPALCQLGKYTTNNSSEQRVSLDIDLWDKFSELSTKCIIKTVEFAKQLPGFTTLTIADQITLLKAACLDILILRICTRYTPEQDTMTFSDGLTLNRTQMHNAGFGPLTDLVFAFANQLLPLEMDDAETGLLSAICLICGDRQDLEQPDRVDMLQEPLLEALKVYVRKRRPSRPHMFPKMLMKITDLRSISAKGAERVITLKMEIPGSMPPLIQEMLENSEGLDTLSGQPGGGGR", "assay": "fluorescence polarization, 10 nM fluorescein peptide, LBD titrated, no ligand"}, "[13]": {"target": "T8, Fluoroscein-NCOR ID-C peptide (NCoR amino acids 2251-2275) (N-terminal fluorescein)", "T8 construct": "also called NCOR peptide; NCoR 2251-2275", "T8 peptide": "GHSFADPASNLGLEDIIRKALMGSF", "assay": "fluorescence polarization, no ligand"}, "[14]": {"target": "T8, Fluoroscein-NCOR ID-C peptide (NCoR …)", "assay": "fluorescence polarization, with agonist ligand T3"}, "[15]": {"target": "B4", "assay": "fluorescence polarization, with agonist ligand T3"}, "[16]": {"target": "T9, VP16-human PPARα (full length) (human, UniProt P06492 410-490; Q07869 1-468)", "T9 construct": "also called VP16 full length PPARα", "assay": "mammalian two-hybrid in CV-1 cells"}, "[17]": {"target": "B1", "assay": "mammalian two-hybrid in CV-1 cells"}, "[18]": {"target": "B2", "assay": "fluorescence polarization, apparent affinity, no ligand"}}, "note": "Primed or numbered codes have the meaning given here. No end group written: not given here. *: point of attachment. fluorescein″ = fluorescein label attached to the peptide N-terminus; Biotin = O=C1N[C@H]2[C@H](CS[C@H]2CCCCC(=O)*)N1"}
{"molecule": "RXRαΔAF2 ligand binding domain (amino acids 225-446) (from UniProt P19793 225-446) (receptor)", "values": [{"measurement": "Kd", "setting": "[1]", "value": 0.25, "unit": "µM"}, {"measurement": "Kd", "setting": "[2]", "value": 0.39, "unit": "µM"}, {"measurement": "fold greater affinity against RXRα ligand binding domain", "setting": "[3]", "value": 100, "unit": "fold"}, {"measurement": "fold greater affinity against RXRα ligand binding domain", "setting": "[4]", "value": 100, "unit": "fold"}]}
{"molecule": "B1", "values": [{"measurement": "mammalian two-hybrid reporter, fold dissociation with GW1929 and GW7845", "setting": "GAL4-NcoR (2239-2300)", "value": "~3", "unit": "fold"}, {"measurement": "mammalian two-hybrid reporter, fold association with GW1929 and GW7845", "setting": "GAL4-CBP (1-115)", "value": "~3", "unit": "fold"}]}
{"molecule": "LXR alpha LBD (receptor, not shown: small tags and cut ends, Biotinylated and bound to streptavidin-APC in the assay; His-tag not written, also called LXRα) EEEQAHATSLPPRASSPPQILPQLSPEQLGMIEKLVAAQQQCNRRSFSDRLRVTPWPMAPDPHSREARQQRFAHFTELAIVSVQEIVDFAKQLPGFLQLSREDQIALLKTSAIEVMLLETSRRYNPGSESITFLKDFSYNREDFAKAGLQVEFINPIFEFSRAMNELQLNDAEFALLIAISIFSADRPNVQDQLQVERLQHTYVEALHAYVSIHHPHDRLMFPRMLMKLVSLRTLSSVHSEQVFALRLQDKKLPPLLSEIWDVHE", "values": [{"measurement": "binding result", "setting": "[5]", "value": "binds"}]}
{"molecule": "{fluorescein″}-TNMGLEAIIFKALMGKYDQWEE", "note": "[Fluoroscein-SMRT ID-C peptide]", "values": [{"measurement": "Kd", "setting": "[6]", "value": 30, "unit": "µM"}, {"measurement": "Kd", "setting": "[7]", "value": 20, "unit": "µM"}, {"measurement": "Kd", "setting": "[8]", "value": 7.7, "unit": "µM"}, {"measurement": "Kd", "setting": "[9]", "value": 6.1, "unit": "µM"}, {"measurement": "Kd", "setting": "[10]", "value": 1.8, "unit": "µM"}, {"measurement": "Kd", "setting": "[11]", "value": 0.74, "unit": "µM"}, {"measurement": "Kd", "setting": "[12]", "value": 2.1, "unit": "µM"}]}
{"molecule": "B2", "values": [{"measurement": "fold greater affinity against the coactivator peptide (SRC-1)", "setting": "[13]", "value": 10, "unit": "fold"}, {"measurement": "fold decrease in affinity with T3 against no ligand", "setting": "[14]", "value": 9, "unit": "fold"}, {"measurement": "fold greater affinity against the co-repressor peptide (NCoR ID-C)", "setting": "[15]", "value": 48, "unit": "fold"}, {"measurement": "fold increase in affinity with T3 against no ligand", "setting": "[15]", "value": 50, "unit": "fold"}]}
{"molecule": "B3", "values": [{"measurement": "binding result", "setting": "[16]", "value": "binds"}, {"measurement": "binding result", "setting": "[17]", "value": "binds"}]}
{"molecule": "B4", "values": [{"measurement": "Kd", "setting": "[18]", "value": 7.1, "unit": "µM"}]}
